One block for each molecule: values may come before it.
Columns and labels:
[1] = molecular target: PhoExo I-CHis D80N mutant (Pyrococcus horikoshii OT3); experiment: crystal structure; PhoExo I-CHis D80N cocrystallised with 7-nt ssDNAs (poly-dA, poly-dC, poly-dT; poly-dT crystal also soaked with 0.1 M MgCl2); 0.1 M MES pH 5.6-5.7, 12-14% PEG6000, 1 M LiCl
[2] = molecular target: PhoExo I (native, untagged) (Pyrococcus horikoshii OT3); experiment: crystal structure; substrate-free native PhoExo I, three crystal forms (crystals 1-3); sitting-drop vapour diffusion at 20°C; trimer in the asymmetric unit (crystals 1, 2) or by the crystallographic 3-fold axis (crystal 3)
[3] = molecular target: C-terminal 4×His-tagged PhoExo I (PhoExo I-CHis) (Pyrococcus horikoshii OT3); experiment: SEC; gel filtration on Superdex 200 HR 10/30, 10 mM Tris HCl pH 8.0, 200 mM NaCl; size estimated against standard proteins
[4] = molecular target: T1, PhoExo I-CHis (wild type) (Pyrococcus horikoshii OT3, UniProt A0A060P168 1-229); experiment: EMSA; 0.1 mM EDTA, no Mg2+; affinity lower than for RNA; EMSA: 25 mM Hepes-NaOH pH 7.5, 50 mM NaCl, 0.1 mM EDTA, 0.1 mg/ml BSA, 5 nM probe, 0-1600 nM trimer, 5 min 55 C, then 0.05% glutaraldehyde 10 min at room temperature; 7.5% native PAGE in TBE; conditions: protein: recombinant; tags: C-terminal 4xHis; chain copies: 3; label: 5'-32P; single strand
T1 sequence (A0A060P168 entry or part of it): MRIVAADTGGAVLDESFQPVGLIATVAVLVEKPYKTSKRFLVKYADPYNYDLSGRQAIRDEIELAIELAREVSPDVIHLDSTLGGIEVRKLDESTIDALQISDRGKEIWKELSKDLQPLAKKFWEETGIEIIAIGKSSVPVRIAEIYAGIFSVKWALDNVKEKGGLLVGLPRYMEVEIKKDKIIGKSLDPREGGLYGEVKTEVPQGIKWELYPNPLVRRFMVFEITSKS

[5] = molecular target: T1, PhoExo I-CHis (wild type); experiment: EMSA; 0.1 mM EDTA, no Mg2+; stronger than for the DNA of same sequence; EMSA: 25 mM Hepes-NaOH pH 7.5, 50 mM NaCl, 0.1 mM EDTA, 0.1 mg/ml BSA, 5 nM probe, 0-1600 nM trimer, 5 min 55 C, then 0.05% glutaraldehyde 10 min at room temperature; 7.5% native PAGE in TBE; conditions: protein: recombinant; tags: C-terminal 4xHis; chain copies: 3; label: 5'-32P; single strand

B1: 27-nt DNA (ssDNA)
DNA: AGCTATGACCATGATTACGAATTGCTT
binding result [4]: binds

B2: 27-nt RNA (ssRNA)
RNA: AGCUAUGACCAUGAUUACGAAUUGCUU
binding result [5]: binds

Next, values leading:

stoichiometry N [1]: 3
Molecule: PhoExo I-CHis D80N mutant (enzyme)

stoichiometry N [2]: 3
Molecule: PhoExo I (native, untagged) (enzyme)

stoichiometry N [3]: 3
Molecule: C-terminal 4×His-tagged PhoExo I (PhoExo I-CHis) (enzyme)

Reference: article PMC4538837, “Structural basis for substrate recognition and processive cleavage mechanisms of the trimeric exonuclease PhoExo I”
